Data published in the supplement of paper PMC9732359.
± gives the uncertainty stated by the source.

Experiment: protein stability index of a GFP-peptide fusion (yeast GPS) (PSI 1-4); higher = more stable; sorted into four equal gates, so the index is relative within each strain
Outline: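 Tiled yeast protein peptides of 17 residues were each joined downstream of GFP, on plasmids that also express Cherry. The pooled library was maintained in yeast, and mid-log cultures in leucine-free medium were sorted into four equal gates on the GFP/Cherry ratio. Plasmids from every gate were amplified by PCR and sequenced on Illumina, with barcodes linking reads to strains. The protein stability index of a peptide is its gate-number-weighted read frequency summed over the gates.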

| Sequence | protein stability index (doa10∆) | protein stability index (pdr5∆) | protein stability index (san1∆) | protein stability index (ubr1∆) |
| --- | --- | --- | --- | --- |
| WKTAEEVSALVRSLPKE [PRP8] | 1.21 ± 0.068 | 1.36 ± 0.079 | 1.28 ± 0.12 | 1.08 ± 0.051 |
| NDIAGQPQALQKSGRPV [RPO21] | 2.93 ± 0.087 | 3.16 ± 0.12 | 2.84 ± 0.16 | 2.96 ± 0.073 |
| DFGFDLDIEKEAPAGNI [MCD1] | 2.76 ± 0.26 |  |  | 3.3 ± 0.15 |
| SLFHTAVSVANGFMHAG [RPN2] | 1.18 ± 0.087 | 1.51 ± 0.077 | 1.29 ± 0.25 | 1.57 ± 0.13 |
| ISMNAPVFVDLEGETDP [RPO26] |  | 2.78 ± 0.3 |  | 3 ± 0.19 |
| SNPSGNYTGWKAISVGA [PRE9] | 1.89 ± 0.073 | 2.5 ± 0.061 | 2.54 ± 0.086 | 2.22 ± 0.048 |
| SNIIHDESDTISFRSNL [SNF6] | 2.79 ± 0.1 | 2.68 ± 0.079 | 2.85 ± 0.098 | 2.7 ± 0.067 |
| VGMRYFHKQQAHFWKPV [RPL28] |  | 3.02 ± 0.11 |  | 2.83 ± 0.09 |
| DDIINNDEPSHKKIKVA [SIR2] | 2.77 ± 0.052 | 2.84 ± 0.037 | 2.64 ± 0.041 | 2.87 ± 0.042 |
| EKIKSKKINRRNETSVD [YCG1] | 3.38 ± 0.094 | 3.09 ± 0.085 | 3.19 ± 0.08 | 3.33 ± 0.069 |
| ARQRGKLKKSEEKVLST [SRP68] | 3.28 ± 0.19 | 3.21 ± 0.11 | 3.33 ± 0.071 | 3.67 ± 0.21 |
| ESQPKQTGTRRNSKLLN [MCD1] | 3.29 ± 0.099 | 3.16 ± 0.12 | 3.19 ± 0.079 | 3.12 ± 0.076 |
| IEPELFNGYNPEKKEMI [FAS2] | 3.18 ± 0.095 | 3.25 ± 0.13 | 3.33 ± 0.092 | 3.43 ± 0.14 |
| SNDNLDLISEILKWVQW [MED1] | 3.03 ± 0.057 | 2.92 ± 0.058 | 2.9 ± 0.051 | 3.09 ± 0.047 |
| SERDSKDRYINGDKKVD [YMR129W/POM152] | 3.08 ± 0.14 | 3.11 ± 0.092 | 3.15 ± 0.091 | 3.1 ± 0.1 |
| RTVAGFSNVELPQCIIP [ARP7] | 2.8 ± 0.05 | 2.76 ± 0.054 | 2.56 ± 0.051 | 2.7 ± 0.034 |
| ITKMLASDESLLRYGGA [RPN2] | 3.28 ± 0.11 | 3.41 ± 0.17 | 3.23 ± 0.11 | 3.82 ± 0.22 |
| YLDADVAKLANWFLEVY [YML031W/NDC1] | 2.45 ± 0.081 | 2.63 ± 0.099 | 2.91 ± 0.12 | 2.79 ± 0.077 |
| LGLYVGVDDQILATNSL [YJL039C/NUP192] | 2.64 ± 0.092 | 3.06 ± 0.12 | 2.3 ± 0.11 | 1.73 ± 0.16 |
| GNASLKYIALQVIVDIF [YCG1] | 1.2 ± 0.069 | 1.36 ± 0.076 | 1.19 ± 0.12 | 1.54 ± 0.15 |
| GGLQKGKLVVSQEMVPR [SIR3] | 3.03 ± 0.07 | 2.83 ± 0.13 | 2.32 ± 0.076 | 3.23 ± 0.12 |
| LFWKVKEEEGSFNNVIG [PRE2] | 3.13 ± 0.12 | 3.39 ± 0.11 | 3.21 ± 0.071 | 3.2 ± 0.11 |
| LKTVIILSSLYLLSIWV [CYT1] | 2.12 ± 0.11 | 1.45 ± 0.092 | 1.24 ± 0.15 | 1.17 ± 0.056 |
| IRKLVKNGTIVKKAVTV [RPL19A] | 2.88 ± 0.17 | 3.08 ± 0.12 | 3.15 ± 0.12 | 3.28 ± 0.072 |
| RSRKTVKAQRPITGASL [RPL24A] | 3.34 ± 0.077 | 3.22 ± 0.11 | 3.14 ± 0.12 | 3.24 ± 0.088 |
| SRRPEPKKFGGKGARSR [RPS16A] | 3.06 ± 0.11 | 3.25 ± 0.095 | 3.25 ± 0.077 | 3.06 ± 0.052 |

| Sequence | protein stability index (doa10∆) | protein stability index (pdr5∆) | protein stability index (san1∆) | protein stability index (ubr1∆) |
| --- | --- | --- | --- | --- |
| SINGGIVVAMTGKDCVA [PUP3] |  | 2.39 ± 0.21 |  |  |
| AVINIRDDGKRELLVEG [RPO31] | 3.56 ± 0.2 | 3.06 ± 0.22 |  | 3.14 ± 0.1 |
| NLLPKKSAKTAKASQEL [HTA2] | 2.92 ± 0.092 | 3.05 ± 0.12 | 2.87 ± 0.11 | 3.18 ± 0.048 |
| ASVRIKDKFNQIPLHRA [NAS6] | 2.55 ± 0.095 | 2.68 ± 0.12 | 2.91 ± 0.14 | 3.17 ± 0.055 |
| MDMNEIEDKENSESTTQ [RPT5] | 3.04 ± 0.15 | 3.25 ± 0.12 | 3.16 ± 0.12 | 3.21 ± 0.098 |
| AQDVALAKKWFLQHPDE [PRP8] | 2.7 ± 0.089 | 2.38 ± 0.095 | 2.33 ± 0.13 | 2.67 ± 0.077 |
| KNATEELLRLANEQLKL [CSN12] | 3 ± 0.071 | 2.93 ± 0.058 | 2.89 ± 0.077 | 2.8 ± 0.094 |
| RQIRPIMERIKSSLSLR [ITC1] | 1.26 ± 0.06 | 1.65 ± 0.075 | 1.35 ± 0.087 | 1.42 ± 0.054 |
| FLNTPNNNINENELFND [SSN2] | 2.94 ± 0.059 | 3.06 ± 0.05 | 2.86 ± 0.054 | 2.88 ± 0.055 |
| SDVSDFEGWGHEYIRHL [RPN1] | 3.07 ± 0.15 | 3.09 ± 0.14 | 3.17 ± 0.14 | 3.37 ± 0.15 |
| LILAGQVKVKGQLGEMA [YCS4] | 3.49 ± 0.1 | 3.35 ± 0.097 | 3.12 ± 0.069 | 2.87 ± 0.072 |
| AMHNSKAASSTRIFQAL [POP1] | 2.59 ± 0.093 | 2.54 ± 0.078 | 2.87 ± 0.14 | 2.89 ± 0.11 |
| VGTAIDSILNYAKSEFD [ECM29] | 2.76 ± 0.2 | 2.77 ± 0.1 | 2.92 ± 0.25 | 3.08 ± 0.088 |
| LWDIMGDRQRLGEEHPL [RPT1] |  |  | 3.31 ± 0.23 |  |
| PHIQKMLSILEIFKKGY [POP6] | 2.42 ± 0.11 | 2.73 ± 0.099 | 3.1 ± 0.091 | 2.54 ± 0.066 |
| ANALGGLGVNRRILAAA [SSN3] | 1.77 ± 0.068 | 1.69 ± 0.069 | 1.58 ± 0.16 | 1.92 ± 0.046 |
| RQEVTKFAKANIGYVMG [RPN4] | 1.2 ± 0.15 | 1.31 ± 0.11 | 1.21 ± 0.18 | 1.14 ± 0.065 |
| IEINEDNSQDDQDRGAA [RRI2] | 3.24 ± 0.18 | 3.28 ± 0.23 | 3.12 ± 0.12 | 3.04 ± 0.11 |
| QQQLQQNSKEKNGLGLN [MED2] | 2.5 ± 0.29 | 3.26 ± 0.12 | 2.42 ± 0.26 | 2.96 ± 0.13 |
| NIDSLKFNELVKLMKNI [BRR2] | 1.37 ± 0.04 | 1.63 ± 0.067 | 1.5 ± 0.11 | 1.8 ± 0.052 |
| QIIRLFYSKNRLLITGT [ISW2] | 2.55 ± 0.23 | 1.56 ± 0.14 |  |  |
| GIKAKHDKNIQKLLKQL [ISW2] | 2.41 ± 0.048 | 2.45 ± 0.048 | 2.45 ± 0.051 | 2.79 ± 0.033 |
| TSEMKVLSIPPANHLQS [YGL100W/SEH1] | 2.64 ± 0.067 | 2.15 ± 0.076 | 2.39 ± 0.081 | 2.56 ± 0.05 |
| QAEATEWAEENADNVEW [RPS0A] | 2.18 ± 0.11 | 1.8 ± 0.11 | 2.27 ± 0.083 | 2.41 ± 0.066 |
| LSYISALGMMTRISSQF [RET1] | 1.41 ± 0.063 | 1.34 ± 0.057 | 1.43 ± 0.16 | 1.14 ± 0.054 |
